Here are results for five molecules from paper PMC11933058 (Frontiers in Immunology, 2025).

The target of assay [1] is T1, recombinant human TIM3 extracellular domain, 6-His C-ter-tagged (ACROBiosystems) (Homo sapiens, UniProt Q8TDQ0).
T1 construct: TIM3 (HAVCR2), human, recombinant extracellular domain; the methods describe the His-tagged protein; For BLI only 'recombinant TIM3' is said; also called HAVCR-2; HAVCR2; source: bought: ACROBiosystems; not shown: His6, C-terminal, kept
Put plainly: AlphaScreen or HTRF; dose-response of antibodies (human IgG1 in concentrated, dosed HEK293 supernatant) on recombinant TIM3 or TIGIT at 0.6 ng/µl; 1 h incubation, then donor and acceptor sensors 1 h; EC50 from a fit in GraphPad Prism. The conditions noted are these: one partner purified.

Assay [2] deals with T1, recombinant human TIM3 extracellular …. Put plainly: BLI; Octet RED96, antibody loaded from supernatant on anti-human Fc (AHC) biosensors, recombinant TIM3 or TIGIT in solution; PBS, 30°C, 1000 rpm; association 300 sec, dissociation 300 sec; global 1:1 fit. The note with it: one partner purified.
Assay [3] has as its target T2, TIT-H52H5 Human TIGIT Protein, His Tag, active dimer (ACROBiosystems) (Homo sapiens, UniProt Q495A1).
T2 construct: TIGIT, human, recombinant extracellular domain; the methods describe the His-tagged protein; For BLI only 'recombinant TIGIT' is said; also called VSIG9; T-cell immunoreceptor with Ig and ITIM domains; source: bought: ACROBiosystems
The assay can be described thus: AlphaScreen or HTRF; dose-response of antibodies (human IgG1 in concentrated, dosed HEK293 supernatant) on recombinant TIM3 or TIGIT at 0.6 ng/µl; 1 h incubation, then donor and acceptor sensors 1 h; EC50 from a fit in GraphPad Prism. The conditions noted are these: one partner purified.

The target in assay [4] is T2, TIT-H52H5 Human TIGIT Protein, His Tag, …. The assay can be described thus: BLI; Octet RED96, antibody loaded from supernatant on anti-human Fc (AHC) biosensors, recombinant TIM3 or TIGIT in solution; PBS, 30°C, 1000 rpm; association 300 sec, dissociation 300 sec; global 1:1 fit. The note with it: one partner purified.
Assay [5] addresses T3, SIRPα with C-terminal Flag tag, overexpressed in HEK293 cells (UniProt P78324).
T3 construct: SIRPα, transmembrane target, synthetic gene; source: HEK293, transiently transfected (pcDNA3.1), cells fixed and permeabilized; not shown: Flag, C-terminal, kept
Put plainly: flow cytometry on cells; HEK293 transiently transfected with the Flag-tagged target, fixed and permeabilized, incubated with raw antibody supernatants 1 h at room temperature; APC anti-human IgG and PE anti-Flag; % APC+PE+ cells. The note with it: partners not purified.

T2 sequence (Q495A1 22-141): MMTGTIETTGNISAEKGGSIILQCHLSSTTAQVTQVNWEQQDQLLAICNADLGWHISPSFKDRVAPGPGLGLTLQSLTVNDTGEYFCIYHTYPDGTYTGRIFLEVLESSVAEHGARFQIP

B1: M6903, human IgG1 format (antibody, V domains shown)
VH: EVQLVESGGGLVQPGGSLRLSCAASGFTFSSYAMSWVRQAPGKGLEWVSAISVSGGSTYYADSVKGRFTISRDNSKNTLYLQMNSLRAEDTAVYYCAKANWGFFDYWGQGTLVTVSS
VL: QSALTQPRSVSGSPGQSVTISCTGTSSDVGGYNYVSWYQQHPGKAPKLMIYDVSKRPSGVPDRFSGSKSGNTASLTISGLQAEDEADYYCSSYADSVVFGGGTKVTVL
notes: VH of M6903; constant domains of unmodified human IgG1 heavy chain, from the plasmid pTrioz-hIgG1 (InvivoGen); VL of M6903; constant domain of the light chain as encoded by pTrioz-hIgG1; IgG1; VH and VL by gene synthesis; also called 6TXZ; source: HEK293, transiently transfected, supernatant (concentrated); also a large batch produced and purified by SinoBiological
B1: the half-maximal effective concentration (EC50) in assay [1] stood at 0.193 nM. Further, in assay [2], the Kd came out at 0.2 nM, the koff came out at 3.06e-05 s⁻¹ and the kon was determined as 153000 M⁻¹ s⁻¹.

B2: MG1131, human IgG1 format (antibody, V domains shown)
VH: EVQLVQSGAEVKKPGASVKVSCKASGYTFTSYYMHWVRQAPGQGLEWMGIINPSGGSTSYAQKFQGRVTMTRDTSTSTVYMELSSLRSEDTAVYYCASRSGSGWFGALDYWGQGTLVTVSS
VL: not shown
notes: VH of MG1131; constant domains of unmodified human IgG1 heavy chain, from the plasmid pTrioz-hIgG1 (InvivoGen); VL of MG1131; constant domain of the light chain as encoded by pTrioz-hIgG1; IgG1; VH and VL by gene synthesis; also called 7VYT; source: HEK293, transiently transfected, supernatant (concentrated)
For the molecule B2, the EC50 in assay [3] stood at 0.489 nM. Besides, in assay [4], the Kd was 0.189 nM, the koff came to 7.43e-05 s⁻¹ and the kon was found to be 393000 M⁻¹ s⁻¹.

B3: CC-95251, human IgG1 format (antibody, V domains shown)
VH: QVQLVQSGAEVKKPGASVKVSCKASGYTFRGYGISWVRQAPGQGLEWMGWISAYGGETNYAQKLQGRVTMTTDTSTSTAYMELRSLRSDDTAVYYCAREAGSSWYDFDLWGRGTLVTVSS
VL: DIQMTQSPSSVSASVGDRVTITCRASQGISSWLAWYQQKPGKAPKLLIYAASNLQSGVPSRFSGSGSGTDFTLTISSLQPEDFATYYCQQGASFPITFGGGTKVEIK
notes: constant domains of unmodified human IgG1 heavy chain, from the plasmid pTrioz-hIgG1 (InvivoGen); constant domain of the light chain as encoded by pTrioz-hIgG1; VH and VL by gene synthesis; also called 7ST5; source: HEK293, transiently transfected, supernatant
Take B3: the binding result in assay [5] is given as “binds”.

B4: Tiragolumab, human IgG1 format (antibody, V domains shown)
VH: EVQLQQSGPGLVKPSQTLSLTCAISGDSVSSNSAAWNWIRQSPSRGLEWLGKTYYRFKWYSDYAVSVKGRITINPDTSKNQFSLQLNSVTPEDTAVFYCTRESTTYDLLAGPFDYWGQGTLVTVSS
VL: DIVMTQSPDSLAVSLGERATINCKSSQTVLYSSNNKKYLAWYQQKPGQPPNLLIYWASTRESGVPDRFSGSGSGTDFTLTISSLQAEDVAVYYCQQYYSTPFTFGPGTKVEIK
notes: VH of Tiragolumab; constant domains of unmodified human IgG1 heavy chain, from the plasmid pTrioz-hIgG1 (InvivoGen); VL of Tiragolumab; constant domain of the light chain as encoded by pTrioz-hIgG1; IgG1; VH and VL by gene synthesis; also called 8JEO; source: HEK293, transiently transfected, supernatant (concentrated)
Take B4: the concentration for a half-maximal effect (EC50) in assay [3] turned out to be 3.15 nM. For the same molecule, in assay [4], the Kd turned out to be 0.681 nM, the koff came out at 0.000279 s⁻¹ and the kon was determined as 410000 M⁻¹ s⁻¹.

B5: Tim3.18, human IgG1 format (antibody, V domains shown)
VH: QLQLQESGPGLVKPSETLSLTCTVSGGSISSRSYYWGWIRQPPGKGLEWIGSIYYSGFTYYQPSLKSRVTISVDTSKNQFSLKLSSVTAADTAVYYCATGGPYGDYAHWFEPWGQGTLVTVSS
VL: not shown
notes: VH of Tim3.18; constant domains of unmodified human IgG1 heavy chain, from the plasmid pTrioz-hIgG1 (InvivoGen); VL of Tim3.18; constant domain of the light chain as encoded by pTrioz-hIgG1; IgG1; VH and VL by gene synthesis; also called 7KQL; source: HEK293, transiently transfected, supernatant (concentrated); also a large batch produced and purified by SinoBiological
In the case of B5, in assay [1], the EC50 was determined as 0.15 nM. Also, in assay [2], the Kd stood at 1.01 nM, the dissociation rate constant (koff) stood at 0.000219 s⁻¹ and the kon was determined as 216000 M⁻¹ s⁻¹.
